Results reported in publication PMC1557793.
Read-outs that look alike come from different tables or passages of the source.

What was measured:
[1] = biological target: E1 helicase domain of bovine papillomavirus type-1 (BPV-1) E1 (bovine papillomavirus type-1 (BPV-1)); assay: SEC
[2] = biological target: E1 helicase domain of bovine papillomavirus type-1 (BPV-1) E1 (bovine papillomavirus type-1 (BPV-1)); assay: SEC + other: glycerol gradient sedimentation
[3] = biological target: T1, E1HD (E1 helicase domain) (bovine papillomavirus type 1 (BPV-1), UniProt P03116 299-605); assay: EMSA
[4] = biological target: T1, E1HD (E1 helicase domain); assay: EMSA; remark: listed apart in the source
[5] = biological target: T1, E1HD (E1 helicase domain); assay: EMSA; remark: listed apart in the source
[6] = biological target: T1, E1HD (E1 helicase domain); assay: EMSA; remark: listed apart in the source
[7] = biological target: T1, E1HD (E1 helicase domain); assay: gel filtration
[8] = biological target: T1, E1HD (E1 helicase domain); assay: EMSA; remark: listed apart in the source

T1 sequence (P03116 299-605): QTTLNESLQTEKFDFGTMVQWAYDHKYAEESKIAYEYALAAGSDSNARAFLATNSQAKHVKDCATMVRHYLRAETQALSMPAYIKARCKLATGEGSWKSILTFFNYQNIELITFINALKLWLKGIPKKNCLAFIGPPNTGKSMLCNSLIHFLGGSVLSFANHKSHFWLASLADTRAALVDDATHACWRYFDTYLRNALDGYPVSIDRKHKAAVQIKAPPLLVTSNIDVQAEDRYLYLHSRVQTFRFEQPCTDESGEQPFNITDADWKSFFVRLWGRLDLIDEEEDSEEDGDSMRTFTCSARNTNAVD
Chain of E1 helicase domain of bovine papillomavirus type-1 (BPV-1) E1 (domain or fragment) (P03116 whole entry, the tested form may be a part): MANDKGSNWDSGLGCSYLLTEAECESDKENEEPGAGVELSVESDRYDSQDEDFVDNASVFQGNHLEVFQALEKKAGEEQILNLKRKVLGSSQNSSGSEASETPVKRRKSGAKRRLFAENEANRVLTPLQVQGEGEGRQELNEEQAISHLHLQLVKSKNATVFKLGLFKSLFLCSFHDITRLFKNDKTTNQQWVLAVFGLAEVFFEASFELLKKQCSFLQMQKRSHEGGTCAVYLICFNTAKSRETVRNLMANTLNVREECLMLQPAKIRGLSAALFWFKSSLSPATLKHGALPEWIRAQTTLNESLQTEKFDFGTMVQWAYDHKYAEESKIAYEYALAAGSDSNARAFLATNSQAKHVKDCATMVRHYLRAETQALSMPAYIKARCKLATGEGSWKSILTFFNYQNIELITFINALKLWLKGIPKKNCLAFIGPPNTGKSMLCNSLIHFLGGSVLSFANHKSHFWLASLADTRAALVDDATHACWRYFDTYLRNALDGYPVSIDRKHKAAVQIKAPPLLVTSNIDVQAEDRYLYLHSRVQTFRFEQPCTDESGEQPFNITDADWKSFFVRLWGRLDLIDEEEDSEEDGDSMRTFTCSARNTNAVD

Question: How did the percent of protein oligomeric [1] turn out when “E1 helicase domain of bovine papillomavirus type-1 (BPV-1) E1 (domain or fragment)” was run?
Answer: 40%

Question: What about the stoichiometry N [1] of the same molecule?
Answer: 6

Question: And the stoichiometry N [2]?
Answer: 6

Question: Which results are given for TTTTTTTTTTTTTTTTTTTTTTTTTTTTTT (ssDNA) [T30]?
Answer: Kd [3]: 1830 ± 290 nM; Kd [4]: 297 ± 7 nM

Question: Does TTTTTT (ssDNA) [T6] bind [5]?
Answer: no binding

Question: Does TTTTTTTTTTTTTTTTTTTTTTTTTTTTTTTTTTTTTTTTTT (ssDNA) [T42] bind [6]?
Answer: binds

Question: Does TTTTTTTTTTTTTTTTTT (ssDNA) [T18] bind [7]?
Answer: binds

Question: Does TTTTTTTTTTTTTTTTTTTT (ssDNA) [T20] bind [8]?
Answer: binds

Question: Does TTTTTTTTTTTTTTTT (ssDNA) [T16] bind [8]?
Answer: binds
